Patent US20030211076A1, “Compositions and methods for treatment of proliferative disorders” (priority 2003, published 2003)

Columns and labels:
[1] = test system: ERK1 and ERK2 MAP kinases; assay: FGF2-stimulated MAP kinase phosphorylation, Western blot; assay type: cell-based
Procedure: Since activation of MAP kinases by FGF2 is one of the earliest mitogenic signaling events within cells (Maher), the effects of LO on FGF2-stimulated MAP kinase phosphorylation were tested by Western blot analysis using an antibody specific for phospho-extracellular signal-regulated kinases 1 and 2 (ERK1 and ERK2). The amount of total ERK1 and ERK2 MAP kinases within the same cell extracts was determined by using an antibody that recognizes both the phospho- and non-phospho-forms of ERK1 and ERK2. […] Cell extracts were prepared and equal amounts of proteins (25 μg) were analyzed by 10% SDS-PAGE. Immunoblotting was performed using antibodies specific for the active forms of ERK1 and ERK2 (A) and total ERKs (B).

lysyl oxidase (LO) = biological target: T1, lysyl oxidase (LO) (Bos taurus, UniProt P33072); assay: LO-dependent H2O2 release, horseradish peroxidase-coupled fluorescence assay (substrate potential for LO); assay type: biochemical; conditions: for substrate of LO (in words): factor as sole substrate, LO-dependent H2O2 release in vitro; for molar ratio of H2O2 released per mole of PDGF-AB at the plateau: 0.11 μM LO, 0.46 μM PDGF-AB
T1 construct: per mature LO molecule (32 kD); from tissue
T1 sequence (P33072 170-418): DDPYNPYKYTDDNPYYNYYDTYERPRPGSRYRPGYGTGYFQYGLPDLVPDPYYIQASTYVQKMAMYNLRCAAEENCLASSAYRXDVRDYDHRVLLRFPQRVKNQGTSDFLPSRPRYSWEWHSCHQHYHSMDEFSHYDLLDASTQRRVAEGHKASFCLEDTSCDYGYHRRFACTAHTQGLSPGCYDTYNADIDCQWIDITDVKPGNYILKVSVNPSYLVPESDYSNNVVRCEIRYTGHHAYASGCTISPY
Procedure: The oxidation of a primary amine substrate by LO yields stoichiometric amounts of the corresponding aldehyde, hydrogen peroxide and ammonia, as shown: RCH2NH2+O2+H2O→RCHO+H2O2+NH3 (Kagan, 1986). To assess the substrate potential of FGF2, LO-dependent H2O2 release was monitored in assays using FGF2 as the sole substrate, using both the optimum temperature for LO activity of 55° C. and the physiological temperature of 37° C. (Trackman et al., 1981).
LO reaction with FGF2 as a substrate was assessed by a horseradish peroxidase-coupled fluorescence assay for H2O2 production. Reaction mixtures contained 0.25 mg of sodium homovanillate(HVA), 40 μg of HRP, and FGF2 at doses as indicated below in 0.05 M sodium borate buffer, pH 8.2, in a final volume of 2 ml. Assays were initiated by the addition of LO to reaction mixtures. H2O2 release was continuously monitored at excitation and emission wavelengths of 315 and 425 nm, respectively, at a constant temperature of 55° C. or 37° C., as specified, in the thermostatted cuvette chamber of an SLM Aminco Bowman Series 2 Luminescence Spectrometer. All activity data were corrected for background rates of H2O2 release determined in complete assay mixtures supplemented with 200 μM BAPN, an irreversible inhibitor of LO. In FIG. 4, solid curves represent the time course of H2O2 release at 55° C. in the reaction of 0.16 μM LO with 0.23 (a), 0.45 (b) and 0.9 (c) μM FGF2, respectively. Dotted curve (d) represents the time course of H2O2 release in the reaction of 0.16 μM LO with 0.9 μM FGF2 at 37° C. The same data were obtained from three separate experiments.
Using the fluorometric assay (Trackman et al., 1981) to monitor LO-dependent H2O2 release in vitro, the substrate potential of other growth factors was also assessed. Major members of the FGF family tested included FGF 1, 4, 5, 6, 7 and EGF (note: All factors are human recombinant forms purchased from R & D Systems, Inc., Minneapolis, Minn.).
A human recombinant disulfide-linked dimer of VEGF165 (MW: 42 kDa)(R & D Systems) as a sole substrate was tested by using the standard in vitro LO catalysis assays as described above for FIG. 4 (Trackman et al., 1981). Curves represent the time course of H2O2 release at 55° C. (a) or 37° C. (b) in the reaction of 0.10 μM LO with 0.45 μM VEGF165. All activity data were corrected for background rates of H2O2 release determined in complete assay mixtures supplemented with the same amounts of LO preincubated with 100 μM BAPN for 15 min at 37° C. The same data were obtained from three separate experiments.
The standard in vitro LO catalysis assays as described above for FIG. 4 (Trackman et al., 1981) using human recombinant PDGF-AB (R & D Systems) as a sole substrate was tested. […] In FIG. 19, curves represent the time course of H2O2 release at 55° C. (a) and 37° C. (b) in the reaction of 0.11 μM LO with 0.46 μM PDGF-AB, respectively. All activity data were corrected for background rates of H2O2 release determined in complete assay mixtures supplemented with the same amounts of LO preincubated with 100 μM BAPN for 15 minutes at 37° C. The same data were obtained from three separate experiments.
To analyze the substrate potential of Tat, the standard in vitro LO catalysis assays as described in FIG. 4 (Trackman et al., 1981) was performed at the optimum temperature of 55° C. and at the physiological temperature of 37° C. A recombinant Tat with 9 lysines in a total of 86 amino acids was used as a sole substrate. FIG. 12A represents a dose and temperature-dependent response. Curves represent the time course of H2O2 release at 55° C. (solid) or 37° C. (dotted) in the reaction of 0.10 μM LO with 0.22 (a and d), 0.43 (b and e) and 0.85 (c and f) μM Tat, respectively. All activity data were corrected for background rates of H2O2 release determined in complete assay mixtures supplemented with the same amounts of LO preincubated with 100 μM BAPN for 15 min at 37° C. […]

[2] = test system: growth-arrested Swiss 3T3 cells; assay: FGF2-stimulated cell cycle progression, FACS analysis; assay type: cell-based; conditions: 5 ng FGF2/ml (0.28 nM FGF2), 20 h
Procedure: The activity of native and LO-oxidized FGF2 on cell cycle progression was evaluated by using fluorescence activated cell sorting (FACS) analysis (Darzynkiewicz et al.). Swiss 3T3 cells were growth-arrested by incubation in 0.3% fetal bovine serum (FBS)/Dulbecco's Modified Eagle's Medium (DMEM) for 3 days. As depicted in FIGS. 6A-6C, the prepared growth-arrested cells were treated for 20 h at 37° C. with or without FGF2, LO, BAPN or their combinations as indicated. After treatment, cells were washed, suspended by treatment with trypsin, washed again and fixed in 0.5% formaldehyde/0.1% Triton X-100/PBS for 15 minutes on ice followed by incubation of samples in 10 μg propidium iodide and 20 units RNAse per ml of PBS for 60 minutes in the dark for DNA staining. The fluorescence intensities of each sample of 10,000 cells in G1, S and G2/M phases were measured by flow cytometry at the FL2 setting of the fluorescence activated cell sorting (FACS) instrument (Becton-Dickinson Corp.). […] LO was presented at 10 nM, FGF2 at 5 ng ml^−1 and BAPN at 100 μM. Data represent the means (+sd) of three separate experiments each assessed with duplicate dishes.

[3] = test system: FGF2 nuclear localization in Swiss 3T3 cells; assay: FGF2 nuclear localization, immunochemical staining; assay type: cell-based; conditions: 0.28 nM FGF2 for 1 h
Procedure: After endocytosis, a fraction of exogenous FGF2 can enter the nucleus of a variety of cell types in a cell cycle-dependent manner (Mason; Rifkin et al.; Prats et al.; Stachowiak et al., 1996; Arese et al.; Baldin et al.). Thus, the possibility that oxidation of FGF2 by LO affects the nuclear localization of this growth factor was tested by using immunochemistry. In FIGS. […]

[4] = test system: growth-arrested Swiss 3T3 cells; assay: PDGF-AB-stimulated cell cycle progression, FACS analysis; assay type: cell-based; conditions: 15 ng PDGF-AB/ml (0.56 nM), 20 h
Procedure: Growth-arrested Swiss 3T3 cells were incubated for 20 h at 37° C. with or without PDGF-AB, LO, BAPN or their combinations as indicated. After incubation, FACS analysis was carried out to characterize the cell cycle progression under different conditions as described in FIG. 6. FIG. 20A represents a dose response of PDGF-AB in cell cycle progression. FIG. 20B represents the LO inhibition of PDGF-AB-stimulated cell cycle progression (the control represents cells treated with 15 ng ml^−1 PDGF-AB in the absence of added LO). FIG. 20C represents the effects of inactivation of LO by BAPN on PDGF-AB-stimulated the cell cycle progression. LO: 15 nM, PDGF-AB: 15 ng ml^−1, BAPN: 100 AM. Data represent the means (±sd) of three separate experiments each assessed with triplicate dishes.

| maximum H2O2 released per mole of FGF2 (lysyl oxidase (LO); 37° C., 0.16 μM LO, 0.9 μM FGF2) | molar ratio H2O2 released per mole of FGF2 at the plateau (lysyl oxidase (LO); 55° C., 0.16 μM LO, 0.23 μM FGF2) | molar ratio H2O2 released per mole of FGF2 at the plateau (lysyl oxidase (LO); 55° C., 0.16 μM LO, 0.45 μM FGF2) | molar ratio H2O2 released per mole of FGF2 at the plateau (lysyl oxidase (LO); 55° C., 0.16 μM LO, 0.9 μM FGF2) | molar ratio H2O2 released per mole of FGF2, mean±standard deviation (lysyl oxidase (LO); 55° C., 0.16 μM LO, mean over 0.23, 0.45 and 0.9 μM FGF2) | substrate of LO (in words) (lysyl oxidase (LO)) | molar ratio of H2O2 released per mole of PDGF-AB at the plateau (lysyl oxidase (LO); 37° C.) | molar ratio of H2O2 released per mole of PDGF-AB at the plateau (lysyl oxidase (LO); 55° C.) | Compound | MAP kinase activation by FGF2 ([1]; 200 μM genistein) | relative number of cells entering the S-M phases versus control (maximum effect) [2] | tyrosine phosphorylation of 42- and 44-kDa ERKs ([1]; 5 ng/ml FGF2, 10 min, versus control) | nuclear FGF2 staining [3] | cells entering the S-M phases versus control (maximum effect) [4] |
| --- | --- | --- | --- | --- | --- | --- | --- | --- | --- | --- | --- | --- | --- |
| – | – | – | – | – | – | – | – | O=c1c(-c2ccc(O)cc2)coc2cc(O)cc(O)c12 [genistein, reference compound] | inhibited | – | – | – | – |
| 5.3 moles of H2O2 per mole of FGF2 | 14.1 | 14.6 | 14.2 | 14.3±0.3 | productive substrate for LO | – | – | FGF2: 18 kDa human recombinant FGF2, 14 lysine residues | – | 4.7 fold | markedly increased | significantly increased nuclear staining | – |
| – | – | – | – | – | substrates of LO | 3.0 | 19.5 | PDGF-AB: 27 kDa human recombinant PDGF-AB heterodimer, 21 lysine residues | – | – | – | – | 3.3 fold |
